# From patent US20160185837A1 (Medimmune Limited, priority 2013, published 2016)
# T1: hGIPr (C3) (Homo sapiens, UniProt P48546)
# T1 construct: expressed in transfected cells
# T1 sequence (P48546 22-466): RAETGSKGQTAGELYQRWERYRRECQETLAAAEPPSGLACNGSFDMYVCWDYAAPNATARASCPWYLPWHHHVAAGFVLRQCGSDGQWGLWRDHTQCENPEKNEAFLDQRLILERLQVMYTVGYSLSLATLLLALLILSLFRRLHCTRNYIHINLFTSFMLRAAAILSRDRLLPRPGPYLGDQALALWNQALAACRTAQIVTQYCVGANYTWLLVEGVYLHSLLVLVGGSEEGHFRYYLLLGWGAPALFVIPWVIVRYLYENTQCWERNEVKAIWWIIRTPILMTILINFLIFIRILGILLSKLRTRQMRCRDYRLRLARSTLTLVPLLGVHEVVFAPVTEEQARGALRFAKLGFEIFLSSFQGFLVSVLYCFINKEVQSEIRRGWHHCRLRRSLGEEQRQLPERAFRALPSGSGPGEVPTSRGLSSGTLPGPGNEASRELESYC
# How the values were obtained:
# [1] = system: blood glucose; assay: Oral glucose tolerance test (OGTT) in mouse model; assay type: in vivo, C57 male mice
# Description: The effect of IP088 on glycemic control in a mouse model was carried out as follows. Twenty-one (21) male C57 male mice (11-12 weeks old) were purchased from Taconic, Denmark and acclimatized for 3 weeks before experimentation. Throughout the acclimatization period the animals are offered ad libitum chow and tap water. Mice were single housed one week prior to the study. On day 1 of the study animals were randomized into 4 groups based on body weight (n=5-6 per group), and were administered the following compounds subcutaneously four hours (IP088, IP040, and GLP1a-Fc) or two hours (liraglutide) prior to each oral glucose tolerance test:
# Group 6: Liraglutide (GLP-1 analog, Novo Nordisk) 0.2 mg/kg S.C.
# Group 7: GLP1a-Fc (GLP-1 agonist) 1 mg/kg S.C.
# Group 8: IP088 1 mg/kg S.C.
# Oral glucose tolerance tests (OGTT) were performed on days 0 and 2, both after a 4-hour fast. […] Blood glucose was measured from tail vein blood before glucose (at t=−240, −120 and 0 min, baseline) and after glucose administration at t=15, 30, 60 and 120 min. Blood samples (tail vein) were collected into […] heparinized glass capillary tubes and immediately suspended in buffer (0.5 ml of glucose/lactate system solution (EKF-diagnostics, Germany) and analyzed for glucose on the test day using a BIOSEN c-Line glucose meter (EKF-diagnostics, Germany) according to manufacturer's instructions.
# [2] = PK by Fc Detection
# Description: Table printed on a drawing sheet, FIG. 3A-C
# Title: PK by Fc Detection
# Circles: IV injection of 1 mg/kg, squares: subcutaneous injection of 1 mg/kg. Pharmacokinetic parameters Cmax, bioavailability (F %) and half-life T1/2 are compared in panel C.
# Circles: IV injection of 1 mg/kg, squares: subcutaneous injection of 1 mg/kg. Pharmacokinetic parameters Cmax, bioavailability (F %) and half life T112 are compared in panel F.
# First reader's note: Panel C of FIG. 3A-C; the title 'PK by Fc Detection' is printed over the whole sheet, including plot panels A and B.
# [3] = Preliminary pharmacokinetics in mouse, serum activity at hGLP-1r by cAMP assay; assay type: in vivo; conditions: 1 mg/kg subcutaneously, C57 Bl/6J mice, cAMP assay in HBSS/HEPES 0.1% BSA
# Description: Preliminary pharmacokinetics in mouse was examined as follows: C57 Bl/6J mice were injected with 1 mg/kg (subcutaneously) with either IP088 or GLP1a-Fc, and serum samples were taken over time (3 animals per time point). The serum samples were then measured for activity at the hGLP-1r by the cAMP assay in HBSS/HEPES 0.1% BSA, as described above.
# [4] = target: T1, hGIPr (C3); assay: BSA-cAMP assay, second human GIPr cell line hGIPr (C3); assay type: cell-based; conditions: Batch 1, second hGIPr cell line, read-out: hGIPr (C3) cAMP activity EC50
# Description: For human GIPr, two different lines were used, shown as “hGIPr” and “hGIPr (C3)” in Table 11. Peptide activation of these various receptors results in downstream production of cAMP second messenger that can be measured in a functional activity assay.
# One basic cAMP assays was performed, differing in the medium used for the assay, the “BSA-cAMP assay”:
# BSA-based assay medium: 0.1% bovine serum albumin (BSA) in
# Hanks Balanced Salt Solution (GIBCO or Sigma), containing 0.5 mM IBMX (Sigma #17018);
# In certain aspects, the assay can also be carried out in medium supplemented with serum albumin that corresponds to the receptor being tested, e.g., human serum albumin for testing cAMP activity at hGIPr or hGLP-1r, rat serum albumin for testing cAMP activity at rGIPr or rGLP-1r, and so on. […]
# cAMP levels were measured using a commercially available cAMP dynamic 2 HTRF kit (Cisbio, Cat #62AM4PEJ), following the two step protocol as per manufacturer's recommendations. […] Plates were incubated at room temperature for one hour and then read on an Envision (Perkin Elmer) using excitation wavelength of 320 nm and emission wavelengths of 620 nm & 665 nm. Data was transformed to % Delta F as described in manufacturer's guidelines and then transformed to percent activation of maximal native agonist response and analysed by 4-parameter logistic fit to determine EC50 values. […]
Molecule,"glycemic control in OGTT compared with GLP1a-Fc, in words ([1]; 1 mg/kg S.C. each, OGTT days 0 and 2)","glucose lowering effect in OGTT, in words ([1]; 1 mg/kg S.C. four hours before OGTT, days 0 and 2, 2 g/kg oral glucose)",Cmax [2] [ng/mL],F (%) [2] [%],t½ [2] [h],time for which serum activity at hGLP-1r is maintained in the nanomolar range in vivo [3],EC50 [4] [nM]
"IP088: Fc fusion, IgG1-TM, SEQ ID NO:105; agonist peptide YSEGTFTSDYSKLLEEEAVRLFIEWLVKGP (SEQ ID NO:15) (protein, also: Fc fusion, IgG1-TM) YSEGTFTSDYSKLLEEEAVRLFIEWLVKGPAAAGGSGSTASSGSGSATGGGGAATHTCPPCPAPEF",superior to GLP1a-Fc at glycemic control,excellent glucose lowering effects,9800,67,71,at least 48 hours,–
IP367 (protein) YSEGTFTSDYRILKERQAIDEFIAWLLKGGAAAGGSGSTASSGSGSATGGGGAATHTCPPC,–,–,–,–,–,–,13
